According to article PMC6282072:

What was measured:
[1] = target: porcine cardiac ventricular myosin (βmys) (porcine) (UniProt P79293)
[2] = target: porcine cardiac ventricular myosin (βmys) (porcine) (UniProt P79293); remark: listed apart in the source

actin-activated myosin ATPase, Km (0.6 µM myosin titrated with 1–50 µM F-actin, 25 mM KCl, 21°C) [1]: 3.7 µM
actin-activated myosin ATPase, Km (value of the running text) [2]: 3.6 µM
Substance: bovine ventricular actin (cardiac actin) (from UniProt Q3ZC07 1-377) (natural protein)
